Test results reported in patent publication US20230265187A1 (published 2023).
Changes are numbered by the printed parent chain. Each block holds one binder with its values, some of them ahead of it.

Tests used:
[1] = molecular target: T1, human TIGIT on Jurkat cells (TIGIT/NFAT reporter Jurkat cells, BPS Bioscience #60538); Promega TIGIT Effector … (human, UniProt Q495A1 22-244); experiment: cell-based or functional assay
T1 sequence (looked up): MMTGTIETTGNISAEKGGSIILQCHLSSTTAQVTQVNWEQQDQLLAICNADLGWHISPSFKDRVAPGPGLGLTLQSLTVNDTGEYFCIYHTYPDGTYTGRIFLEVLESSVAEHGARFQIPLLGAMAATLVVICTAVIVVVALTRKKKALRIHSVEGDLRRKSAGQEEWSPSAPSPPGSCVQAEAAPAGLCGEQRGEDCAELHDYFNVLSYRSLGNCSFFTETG

[2] = molecular target: T2, his-tagged human TIGIT (Acro Biosystems #TIT-H52H3) (human, UniProt Q495A1 22-141); experiment: ELISA, coated His-TIGIT, 1 ug/ml
T2 construct: Bought protein; also called His-tagged-TIGIT (human); not shown: his tag
T2 sequence (looked up): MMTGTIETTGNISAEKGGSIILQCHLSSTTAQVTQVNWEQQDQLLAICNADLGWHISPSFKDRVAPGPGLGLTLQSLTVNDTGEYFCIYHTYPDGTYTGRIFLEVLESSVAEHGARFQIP

[3] = molecular target: T3, his-tagged murine TIGIT (Acro Biosystems #TIT-M52E6) (murine, UniProt P86176 29-148, limits assumed); experiment: ELISA, coated His-TIGIT, 1 ug/ml
T3 construct: Bought protein; also called mouse his-tagged TIGIT; not shown: his tag
T3 sequence (looked up): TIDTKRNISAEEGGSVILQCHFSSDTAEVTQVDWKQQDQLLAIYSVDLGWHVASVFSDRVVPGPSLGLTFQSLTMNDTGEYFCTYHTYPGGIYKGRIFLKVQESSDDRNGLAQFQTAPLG

[4] = molecular target: T4, His-tagged cynomolgus monkey TIGIT (Acro Biosystems #TIT-05223) (cynomolgus monkey, UniProt A0A7N9I9V4 89-209); experiment: ELISA, coated His-TIGIT, 1 ug/ml
T4 construct: Bought protein; also called cyno TIGIT; cynomolgus TIGIT; not shown: His tag
T4 sequence (A0A7N9I9V4 entry or part of it): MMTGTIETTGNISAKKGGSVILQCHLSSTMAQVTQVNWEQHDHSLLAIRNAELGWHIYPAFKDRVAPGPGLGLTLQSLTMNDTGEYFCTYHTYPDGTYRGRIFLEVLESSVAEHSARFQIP

[5] = molecular target: T1, human TIGIT on Jurkat cells (TIGIT/NFAT …); experiment: flow cytometry, TIGIT/NFAT Jurkat cells, 10 ug/ml
[6] = molecular target: T2, his-tagged human TIGIT (Acro Biosystems …); experiment: SPR (Carterra LSA), scFv-Fc captured, His-TIGIT analyte
Experimental: (§1) Binding affinities of anti-TIGIT antibodies to human, cyno, and murine TIGIT were measured by Surface Plasmon Resonance (SPR) on a Carterra LSA instrument. Goat anti-human Fc antibody was amine coupled to a HC30M chip. ScFv-Fc supernatants were diluted 30-fold with HBSTE and were captured by the anti-human Fc coupled HC30M chip. A 1:2 dilution series of his-tagged human TIGIT, starting at 400 nM, was injected onto the chip for binding. A dilution series was also carried out for cyno TIGIT and murine TIGIT. Data were analyzed using the Carterra™ Kinetics software.

[7] = molecular target: T3, his-tagged murine TIGIT (Acro …); experiment: as above
Experimental: as §1

[8] = molecular target: T4, His-tagged cynomolgus monkey TIGIT …; experiment: as above
Experimental: as §1

- max. signal (% of 22G2) [1]: 91 % of 22G2
- Elisa OD450 [2]: 2.03 OD450
- Elisa OD450 [3]: 2.03 OD450
- Elisa OD450 [4]: 0.685 OD450
- MFI [5]: 10700 MFI
- Kd [6]: 1.04 nM
- Kd [7]: 3.2 nM
- Kd [8]: 411 nM
B1: 43586p1.2.C5 (scFv, V domains shown)
VH: EVQLLESGGGLVQPGGSLRLSCAASGFTVSDHYMSWVRQAPGKGLEWVSTTSSTSWKNYTYYADSVKGRFSISRDNSENTLYLQMNGLRAEDTAVYYCAKGSYGMDVWGQGTTVTVSS
VL: QSVLTQPPSASGTPGQRVTISCSGSNFNIGTKYLYWYQQLPGTAPKLLIYLDSQRPSGVPDRFSTSKPGTSASLAISGLQSEDEADYYCALWDDHLHGWVFGGGTKLTVL

- max. signal (% of 22G2) [1]: 130 % of 22G2
- Elisa OD450 [2]: 2.1 OD450
- Elisa OD450 [3]: 1.66 OD450
- Elisa OD450 [4]: 1.46 OD450
- MFI [5]: 9470 MFI
- Kd [6]: 0.125 nM
- Kd [7]: 501 nM
- Kd [8]: 25.3 nM
B4: 43586p1.2.B8 (scFv, V domains shown)
VH: EVQLLESGGGLVQPGGSLRLSCAASGFTFTSYLMSWVRQAPGKGLEWVSTITWDGDRTYYADSVKGRFTISRDNSKNTLYLQMNSLRVGDTAVYYCAKHWTVFQYGMDVWGQGTTVTVSS
VL: QSVLTQPASASGTPGQRVTITCSGTISNIETKYVSWYQQLPGTAPKLLIYGNHQRPSGVPDRFSGSKSGTSASLAISGLQSEDEADYYCASWENDLKSWVFGGGTKLTVL

- max. signal (% of 22G2) [1]: 126 % of 22G2
- Elisa OD450 [2]: 2.17 OD450
- Elisa OD450 [3]: 0.046 OD450
- Elisa OD450 [4]: 1.61 OD450
- MFI [5]: 8330 MFI
- Kd [6]: 0.202 nM
- Kd [7]: 3.66 nM
- Kd [8]: 8.69 nM
B6: 43586p1.2.C9 (scFv, V domains shown)
VH: EVQLLESGGGLVQPGGSLRLSCAASGFTFDDYVMSWVRQAPGKGLEWVSLINWNGDKTYYADSVKGRFTISRDNSKNTLYLQMNSLRAEDTAIYYCAKHWIVFQYGMDVWGQGTTVTVSS
VL: B4 VL with A8P, T21S, T25S, G51N, N52S, H53D, A90V, E93D, N94A, D95S

- max. signal (% of 22G2) [1]: 106 % of 22G2
- Elisa OD450 [2]: 1.94 OD450
- Elisa OD450 [3]: 0.046 OD450
- Elisa OD450 [4]: 1.59 OD450
- MFI [5]: 9090 MFI
- Kd [6]: 2.19 nM
- Kd [8]: 26.8 nM
B7: 43586p2.B02 (scFv, V domains shown)
VH: EVQLLESGGGLVQPGGSLRLSCAASGFTFTSYAMSWVSQAPGKGLEWVAGISYDGSSKYYADSVKGRLTISRDNSKNTLYLQMNSLRAEDTAIYYCAKHLTGGTTDYYYYAMDVWGQGTTVTVSS
VL: QSVLTQPPSASGTPGQRVTISCSGSRSNIGTNRYVHWYQQLPGTAPKLLIYGNHQRPSGVPDRFSGSKSGTSASLAISGLQSEDEADYYCAAWDDSLSAWVFGGGTKLTVL

- max. signal (% of 22G2) [1]: 89 % of 22G2
- Elisa OD450 [2]: 2.01 OD450
- Elisa OD450 [3]: 0.045 OD450
- Elisa OD450 [4]: 1.34 OD450
- MFI [5]: 9000 MFI
- Kd [6]: 0.721 nM
- Kd [8]: 20 nM
B9: 43586p1.1.A7 (scFv, V domains shown)
VH: B7 VH with S38R, S57I, K58Q, Y80N, E89G, I93V, A111G
VL: B7 VL with L4M, R26S, Q39K, L41V, D95G, A99G

- max. signal (% of 22G2) [1]: 118 % of 22G2
- Elisa OD450 [2]: 1.92 OD450
- Elisa OD450 [3]: 1.67 OD450
- Elisa OD450 [4]: 1.73 OD450
- MFI [5]: 9960 MFI
- Kd [6]: 0.214 nM
- Kd [7]: 5.46 nM
- Kd [8]: 1.55 nM
B10: 43586p2.D05 (scFv, V domains shown)
VH: B6 VH with I93V, K98R, M107L, V109I
VL: QSVLTQPLSASGTPGQRVTISCSGVSSNIEIKYVSWYQQLPGTAPKLLIYNSHQRPSGVPDRFSGSKSGTSASLAISGLQSEDEADYYCTSWDDRLKSWVFGGGTKLTVL

- Elisa OD450 [2]: 1.88 OD450
- Elisa OD450 [3]: 1.7 OD450
- Elisa OD450 [4]: 1.5 OD450
- MFI [5]: 7590 MFI
- Kd [6]: 0.639 nM
- Kd [7]: 1.57 nM
- Kd [8]: 2.37 nM
B13: 43586p2.G02 (scFv, V domains shown)
VH: EVQLLESGGGLVQPGGSLRLSCAASGFTFSSYWMNWVRQAPGKGLEWVSGIYSGGTTYYADSVKGRFTISRDNSKNTLYLQMNSLRAEDTAVYYCTRENWKENNAMDVWGQGTTVTVSS
VL: QSVLTQPPSASGTPGQRVTISCSGVTSNIASYHVYWYQQLPGTAPKLLIYLNSQRPSGVPDRFSASKSGTSASLAISGLQSEDEADYYCATWDGSQNGWVFGGGTKLTVL

The remaining lines, values behind:

B2: 43586p2.D01 (scFv, V domains shown)
VH: B1 VH with D31S, H32N, Y33W, T54S, K57N, S71T, E78K, G87S
VL: B1 VL with F27S, T31A, D52N, S53D, T65G, P68S, L91F, H97K
- max. signal (% of 22G2) [1]: 103 % of 22G2
- Elisa OD450 [2]: 1.95 OD450
- Elisa OD450 [3]: 1.66 OD450
- Elisa OD450 [4]: 1.61 OD450
- MFI [5]: 9990 MFI
- Kd [6]: 1.04 nM
- Kd [7]: 0.496 nM
- Kd [8]: 29.1 nM

B3: 43586p1.2.E6 (scFv, V domains shown)
VH: B1 VH
VL: B1 VL with P68S
- max. signal (% of 22G2) [1]: 97 % of 22G2
- Elisa OD450 [2]: 1.82 OD450
- Elisa OD450 [3]: 2.01 OD450
- Elisa OD450 [4]: 0.776 OD450
- MFI [5]: 10500 MFI
- Kd [6]: 1.56 nM
- Kd [7]: 3.07 nM
- Kd [8]: 564 nM

B5: 43586p1.2.C12 (scFv, V domains shown)
VH: ESGGGLVQPGGSLRLSCAASGFTFSDYLMTWVRQAPGKGLEWVSTITWDGDRTYYADSVKGRFTISRDNSKNTLYLQMNSLRAEDTAVYYCAKHWTVFQYGMDVWGQGTTVTVSS
VL: B4 VL with A8P, T21S, T31I, A90S
- max. signal (% of 22G2) [1]: 118 % of 22G2
- Elisa OD450 [2]: 2.21 OD450
- Elisa OD450 [3]: 2.03 OD450
- Elisa OD450 [4]: 1.68 OD450
- MFI [5]: 11900 MFI
- Kd [6]: 0.192 nM
- Kd [7]: 68.2 nM
- Kd [8]: 9.18 nM

B8: 43586p2.C09 (scFv, V domains shown)
VH: B7 VH with A23T, S57I
VL: B7 VL with R26T, L41F, N53T, H54D, Q55R, P61S
- max. signal (% of 22G2) [1]: 115 % of 22G2
- Elisa OD450 [2]: 2.07 OD450
- Elisa OD450 [3]: 0.046 OD450
- Elisa OD450 [4]: 1.79 OD450
- MFI [5]: 8830 MFI
- Kd [6]: 0.354 nM
- Kd [8]: 2.62 nM

B11: 43645p1.D7 (scFv, V domains shown)
VH: EVQLLESGGGLVQPGGSLRLSCAASGFTFSRNSMSWVRQAPGKGLEWVSTINSGSSYTYYADSVKGRFTISRDNSKNTLYLQMNSLRAEDTAVYYCAKDNCNGYHCYGMDVWGLGTTVTVSS
VL: QSVLTQPPSASGTPGQRVTISCSGSTSNVGDHYVHWYQQLPGTAPKLLIYKDDQRPSGVPDRFSGSKSGTSASLAISGLQSEDEADYYCSTWDNTLNGWVFGGGTKLTVL
- max. signal (% of 22G2) [1]: 57 % of 22G2
- Elisa OD450 [2]: 2.06 OD450
- Elisa OD450 [3]: 0.32 OD450
- Elisa OD450 [4]: 1.88 OD450
- MFI [5]: 9660 MFI
- Kd [6]: 6.76 nM
- Kd [8]: 6.27 nM

B12: 43586p2.D06 (scFv, V domains shown)
VH: B13 VH
VL: B13 VL with Q96L
- Elisa OD450 [2]: 1.77 OD450
- Elisa OD450 [3]: 1.36 OD450
- Elisa OD450 [4]: 1.66 OD450
- MFI [5]: 15400 MFI
- Kd [6]: 0.344 nM
- Kd [7]: 3.09 nM
- Kd [8]: 1.06 nM
